Laboratory results: paper PMC7190724, “Improved GPCR ligands from nanobody tethering” (Nature Communications, 2020)
One block for each binder: values may come before it.

Legend:
[1] = biological target: PTHR1_(YFPΔECD); test: flow cytometry on cells; dose response of staining with VHH-Alexafluor647 (median fluorescent intensity); cells in PBS, 1 h on ice; curves without plateau constrained to the plateau seen with other VHHs
[2] = biological target: each of the PTHR1 receptor constructs that retained the ECD; test: as above

EC50 [1]: < 10 nM
B1: VHHGFP (VHH)
VHH: QVQLQESGGALVQPGGSLRLSCAASGFPVNRYSMRWYRQAPGKEREWVAGMSSAGDRSSYEDSVKGRFTISRDDARNTVYLQMNSLKPEDTAVYYCNVNVGFEYWGQGTQVTVSS

EC50 [2]: 100 to 200 nM
B2: VHH_(PTHR) (VHH)
VHH: EVQLVESGGGLVQAGGSLRLSCAASGNIFANNIMGWYRQPPGKEREFVAHVSHDGDSMYAVSVKGRFAISRKDATNLYLQMNSLKPEDTAIYFCRLLNIPTQGRMEGFWGQGTQVTVSS
